Assays:
Assay type in all cases: in vivo
[1] = tested on: C57B/6 mice with normal cardiac function; test: Cardiac performance (echocardiography, LV EF %) versus myocardial S100A1 protein level in normal mice
Description: The range of myocardial S100A1 protein expression that conveys cardiac performance enhancement in mice with normal cardiac function is determined by the use of AAV9-mediated human S100A1 cDNA myocardial delivery. The cardiac performance with respect to gradually increasing myocardial S100A1 protein levels was assessed in normal 6 months old C57B/6 mice with the aim to determine the efficient dose range of S100A1 protein concentrations in normal myocardium for acute and sustained enhancement of cardiac function in vivo. Techniques used are described in detail in Voelkers et al. Circ Res (2011) 108; 27-39 employing intravenous application of AAV9 for a gradual increase in global myocardial transgene expression; in Most et al. JCI (2004) 114; 1550-1563 for echocardiography for cardiac function analysis. AAV9-S100A1 and corresponding control vector generation and use of the cardiac specific promoter element to drive expression of both transgenes is described in detail in Pleger et al. Science Translational Medicine (2011) 3, 92ra64. The S100A1 overexpression (2, 4, 8, 20 and 50 fold) corresponds to intravenous AAV9-S100A1 dosages (total virus particles; tvp) 5×10^10, 1×10^11, 2×10^11, 5×10^11, 1×10^12 respectively. Total S100A1 protein amount in murine myocardium was assessed by ELISA as described in detail in Example 4. S100A1 concentrations were measured by Western Blot as described by Most et al. JCI (2004) 114; 1550-1563 using a custom-made rabbit anti-S100A1 polyclonal IgG antibody (SA 5632). 0.83 μg S100A1 protein/g wet weight myocardium equals normal S100A1 values in healthy left ventricular myocardium and has been set as 1 for relative comparison. Conversion between n-fold relative changes assessed by WB and total myocardial S100A1 protein measured by ELISA is given by the second x-axis. […] The biologically effective S100A1 dosages fall into the range between 0.83 to 41.5 μg S100A1 protein/g wet weight myocardium and peak actions relate to 3.32 μg S100A1 protein (assessed by ELISA).

[2] = tested on: C57B/6 mice with impaired cardiac function due to experimental myocardial infarction; test: Cardiac function (LV EF %, LV+dp/dt max) in failing mouse hearts
Description: (§1) The therapeutic window of viral-based re-expression and augmentation of myocardial S100A1 protein concentrations in mice with impaired cardiac function was then analysed. The results for S100A1 dose-dependency in normal mice provides the basis for determining the therapeutic window of S100A1 re-expression in C57B/6 mice with impaired cardiac function due to experimental myocardial infarction through temporary occlusion of the left anterior coronary artery as technically described in detail in Brinks et al. Circ Res (2010) 107; 1140-1149. Techniques for intravenous application of AAV9 for gradual increases in global myocardial transgene expression are described in detail in Voelkers et al. Circ Res (2011) 108; 27-39; in Most et al. JCI (2004) 114; 1550-1563 echocardiography for cardiac function analysis. AAV9-S100A1 and corresponding control vector generation and use the cardiac specific promoter element to drive expression of both transgenes is described in detail in Pleger et al. Science Translational Medicine (2011) 3, 92ra64. The S100A1 re-/overexpression 0.7, 2, 4, 8, 20 and 50 fold corresponds to intravenous AAV9-S100A1 dosages (total virus particles; tvp) 2×10^10 ′, 5×10^10, 1×10^11, 2×10^11, 5×10^11, 1×10^12 respectively. Total S100A1 protein amount in murine myocardium was assessed by ELISA as described in detail in Example 4. S100A1 concentrations were measured by Western Blot as described by Most et al. JCI (2004) 114; 1550-1563 using a custom-made rabbit anti-S100A1 polyclonal IgG antibody (SA 5632). Total S100A1 protein amounts below 0.83 μg S100A1 protein/g wet weight myocardium characterizes failing left ventricular myocardium with impaired contractile function. Conversion between n-fold relative changes assessed by WB and total myocardial S100A1 protein measured by ELISA is given by the second x-axis.
Therapeutic actions peak around 4-fold S100A1 overexpression relating to a total S100A1 protein amount of 3.32 μg S100A1 protein/g wet weight myocardium. The S100A1 therapeutic window of contractile performance enhancement falls into the range between 0.25 and 41.4 μg S100A1 protein/g wet weight myocardium. Values reflect the relative range from re-expression to normal and up to 50 fold relative increase in S100A1 protein levels.

[3] = tested on: C57B/6 mice with impaired cardiac function due to experimental myocardial infarction; test: β-adrenergically triggered ventricular tachyarrhythmias in failing mouse hearts
Description: as §1, with “AAV9-S100A1 and corresponding control vector generation and use the cardiac specific promoter element to drive expression of both transgenes is described in detail in Pleger et al. Science Translational Medicine (2011) 3, 92ra64. The S100A1 re-/overexpression 0.7, 2, 4, 8, 20 and 50 fold corresponds to intravenous AAV9-S100A1 dosages (total virus particles; tvp) 2×10^10 ′, 5×10^10, 1×10^11, 2×10^11, 5×10^11, 1×10^12 respectively.” left out, “Total S100A1 protein amounts below 0.83 μg S100A1 protein/g wet weight myocardium characterizes failing left ventricular myocardium with impaired contractile function.” left out, “x-axis. […]” for “x-axis.”

[4] = tested on: C57B/6 mice with impaired cardiac function due to experimental myocardial infarction; test: CrP/ATP ratio as surrogate for cardiac metabolism in failing mouse hearts
Description: as §1, with “AAV9-S100A1 and corresponding control vector generation and use the cardiac specific promoter element to drive expression of both transgenes is described in detail in Pleger et al. Science Translational Medicine (2011) 3, 92ra64. The S100A1 re-/overexpression 0.7, 2, 4, 8, 20 and 50 fold corresponds to intravenous AAV9-S100A1 dosages (total virus particles; tvp) 2×10^10 ′, 5×10^10, 1×10^11, 2×10^11, 5×10^11, 1×10^12 respectively.” left out, “Total S100A1 protein amounts below 0.83 μg S100A1 protein/g wet weight myocardium characterizes failing left ventricular myocardium with impaired contractile function.” left out, “x-axis. […]” for “x-axis.”

[5] = tested on: domestic pigs with impaired cardiac function (post-ischemic heart failure); test: Cardiac function (LV EF %, LV+dp/dt max) in failing pig hearts
From the text: (§2) This Example details the therapeutic window of viral-based re-expression and augmentation of myocardial S100A1 protein concentrations in domestic pigs with impaired cardiac function. The results for S100A1 dose-dependency in heart failure mice provide the base for determining the therapeutic window of S100A1 re-expression animal models that approximate human weight, size and cardiovascular anatomy and pathophysiology. Post-ischemic heart failure in pigs was induced by experimental myocardial infarction through temporary occlusion of the left circumflex coronary artery by percutaneous balloon occlusion. S100A1 re-expression and overexpression was achieved by retrograde intravenous application of increasing dosages of AAV6-S100A1 with S100A1 expression controlled by a cardiac specific promoter element. Analytical techniques and molecular tools used to this end are described in detail in Pleger et al. Science Translational Medicine (2011) 3, 92ra64. AAV6 was used in addition to AAV9 exploiting its greater myocardial transduction efficacy of AAV6 to achieve increasing myocardial S100A1 protein concentrations. S100A1 re-/overexpression 1.6, 6, 20 and 50 fold corresponds to intravenous AAV9-S100A1 dosages (total virus particles; tvp) of 1.5×10^13 (1.6-fold) and AAV6-S100A1 dosages of 1.5×10^11 (6-fold), 1.5×10^12 (20 fold) and 1.5×10^13 (50-fold), respectively. […]

[6] = tested on: domestic pigs with impaired cardiac function (post-ischemic heart failure); test: β-adrenergically triggered ventricular tachyarrhythmias, large animal model; settings: large animal example, FIG. 8
From the text: as §2

[7] = tested on: domestic pigs with impaired cardiac function (post-ischemic heart failure); test: CrP/ATP as surrogate for cardiac metabolism in failing pig myocardium; settings: re-expression to normal and up to a 50 fold increase
From the text: as §2

[8] = re-expression to normal and up to a 50 fold increase

B1: S100A1: EF-hand calcium-binding protein of the S100 family; human S100A1 expressed in myocardium from AAV-delivered cDNA (protein, UniProt P23297 1-94, looked up)
Protein S100-A1: MGSELETAMETLINVFHAHSGKEGDKYKLSKKELKELLQTELSGFLDAQKDVDAVDKVMKELDENGDGEVDFQEYVVLVAALTVACNNFFWENS
With B1 the “increase of cardiac S100A1 protein concentrations at which left ventricular ejection fraction (LV EF %) peaks” value ([1]; anesthetized normal mice, compared to normal S100A1 protein levels, assessed by WB) was 4-6 fold, the “effect of further increase in cardiac S100A1 protein concentrations” value (shortened to “effect of further increase”) ([1]; normal mice, above the effective range) was “loss of the S100A1-mediated contractile performance enhancement” and the “S100A1 protein amount of peak actions” value ([1]; normal mice, assessed by ELISA) was 3.32 μg S100A1 protein. The “S100A1 overexpression at which therapeutic actions peak” value [2] was “around 4 fold”, the “total S100A1 protein amount at which therapeutic actions peak” value [2] was 3.32 μg S100A1 protein/g wet weight myocardium and the “cardiac function assessed by LV EF % and LV+dp/dt max” value ([2]; S100A1 re-expression and over-expression) was “restores and improves cardiac function”. The “effect of further increase” value ([2]; above the therapeutic window) was “complete loss of S100A1's therapeutic performance enhancement”, the “effect of further increase” value ([3]; above the therapeutic window) was “complete loss of S100A1's therapeutic anti-arrhythmic actions” and the “β-adrenergically triggered ventricular tachyarrhythmias” value [3, 8] was “prevents β-adrenergically triggered ventricular tachyarrhythmias”. For the same molecule, the “effect of further increase” value ([4]; above the therapeutic window) was “complete loss of S100A1's therapeutic anti-arrhythmic actions”, the “CrP/ATP ratio as surrogate for cardiac metabolism restoration” value [4, 8] was “improves the CrP/ATP ratio” and the “effect of further increase” value ([5]; above the therapeutic window) was “complete loss of S100A1's therapeutic actions”. The “cardiac function assessed by LV EF % and LV+dp/dt max” value [5, 8] was “restores and improves cardiac function”, the “effect of further increase” value ([6]; above the therapeutic window) was “complete loss of S100A1's therapeutic actions” and the “β-adrenergically triggered ventricular tachyarrhythmias” value [6, 8] was “prevents β-adrenergically triggered ventricular tachyarrhythmias”. For the same molecule, the “CrP/ATP as a surrogate for cardiac metabolism restoration” value [7] was “improves the CrP/ATP”.
